From patent US20240083958A1, “G PROTEIN PEPTIDOMIMETICS” (VRIJE UNIVERSITEIT BRUSSEL, priority 2020, published 2024)
Bridge positions count the residues as written; N and C are the ends. Square brackets hold non-standard residues; d marks the D form. Primed or numbered codes have the meaning given here. Azk = residue with azidated side chain, clicked to Pra; Pra′ = residue with alkynyl side chain, clicked to Azk; Lys(N3) = [N-]=[N+]=NCCCC[C@H](N)C(=O)O; 1Nal = N[C@@H](Cc1cccc2ccccc12)C(=O)O; 2Nal = N[C@@H](Cc1ccc2ccccc2c1)C(=O)O; Aad = N[C@@H](CCCC(=O)O)C(=O)O; Cha = N[C@@H](CC1CCCCC1)C(=O)O; Pra = C#CC[C@H](N)C(=O)O

Experiments:
human β2AR [1] = biological target: T1, human β2AR (Homo sapiens, UniProt P07550, N187E); assay: Radioligand binding assay (RLA) with human β2AR, 3H-dihydroalprenolol (DHA) as radioligand, isoproterenol (agonist) as cold competitor, in presence and absence of the peptidomimetic; design: key to Shift: ratio IC50 basal (no peptide) / IC50 with peptidomimetic
T1 construct: made in house; host or cells: Sf9 insect cells (Bac-to-Bac baculovirus); membrane extracts
Method: β2AR365N constructs were expressed in Sf9 insect cells, using the Bac-to-Bac® Baculovirus Expression System. The membrane extracts were prepared from cells that expressed β2AR. Subsequently, the cell pellet was resuspended in a buffer (1 ml buffer/2×1E7 cells) containing 75 mM Tris pH 7.4, 12.5 mM MgCl2, 1 mM EDTA, Leupeptin and PMSF as protease inhibitors. Afterwards the cells were vortexed and homogenized in ice using a small volume Ultraturrax (6×10 sec). The cells were then centrifuged for 15 min at 16000 rcf, in a pre-cooled centrifuge (4° C.) and resuspended in the previous buffer containing 10% sucrose. Finally, the membranes were again homogenized in ice with the small volume Ultraturrax (3×10 sec). The protein concentration in the membrane fragments was determined using a Pierce BCA Protein Assay Kit and the protein concentration was extrapolated from the Bovine Serum Albumine standard curve.
To perform the radioligand competition binding assays, 96-well plates were used. For the assays on β2AR, the membrane extracts as well as the peptides were prepared in a binding buffer (75 mM Tris pH 7.4, 12.5 mM MgCl2, 1 mM EDTA, 0.2% BSA). The ligand (isoproterenol) and radioligand ([^3H]-dihydroalprenolol) were dissolved in ligand buffer (75 mM Tris pH 7.4, 12.5 mM MgCl2, 1 mM EDTA, 0.2% BSA and 0.1% ascorbic acid), at 1 mM and 2 nM, respectively. A ten-fold dilution series of the ligand was prepared to obtain a dose response curve. For each reaction 100 μl membrane extract, 50 μl ligand, 50 μl peptide or binding buffer containing 1% DMSO and 50 μl of radioligand was added to the V-bottom storage plate, with a total volume of 250 μl per well. Afterwards, the plates were incubated at room temperature for 2 h on a plate shaker (150 rpm). The samples were harvested into filter plates and washed with ice cold washing buffer (75 mM Tris pH 7,4) using the 96-well harvester. The plates were dried for 1 h at 50° C. and then sealed to allow the addition of 30 μl scintillation liquid to each well. Finally, the top of each plate was sealed and the plates were placed in a Wallac MICROBETA® Trilux scintillation counter and incubated for 30 min in the dark.
After the Microbeta scintillation counter, the experimental data was further analyzed using Graphpad Prism 6.0. After normalization of the raw data, a nonlinear regression was used to fit the data in a one-site binding model, with the total binding set as 100% and the non-specific binding between 0 and 5%. The IC50 values, obtained from the competition curves, were used to determine the shift for each peptide, which is the ratio of IC50 of the agonist test compound on the basal conformation (e.g. IC50 β2AR with no peptidomimetic) versus the active conformation (e.g. IC50 β2AR+peptidomimetic) of the receptor. For certain peptide analogues, a biphasic binding curve was observed and therefore fitted by a two-site model (nonlinear regression), resulting in two IC50 values (IC50Hi and IC50Lo) and a FractionHi, the fraction of receptors in the active state.
Synthesised peptidomimetics were evaluated using a radioligand binding assay (RLA) with a human β2AR, using ^3H-dihydroalprenolol (DHA) as the radioligand and increasing concentrations of isoproterenol (agonist) as cold competitor. In particular, the pharmacological stabilization of the receptor in the active conformation was evaluated by performing the radioligand displacement assay (RLA) in the presence and absence of the peptidomimetics. This validated assay quantifies the pharmacological stabilization of the receptor in the active conformation by comparing the affinities of an agonist for the basal versus the active GPCR conformer (Pardon et al. (2018) Angewandte Chemie International Edition 57, 5292-5295). During the assay, the binding affinity of an orthosteric agonist for the receptor, in particular isoproterenol for human β2AR, in presence and absence of the allosteric peptidomimetic was determined. […]

human β2AR [2] = biological target: human β2AR (human, UniProt P07550 2-365); assay: cell-based or functional assay
[3] = Table 1, ratio IC50 β2AR alone / IC50 β2AR + peptidomimetic
[4] = Table 18b overview, averaged values of IC50 shift
[5] = Table 6, ratio IC50 β2AR alone / IC50 β2AR + peptidomimetic
[6] = Table 18a overview, averaged values of IC50 shift

Row | Molecule | Shift (averaged) (human β2AR [2]) | other results
1 | Ac-FN[PraCRDAzk]IQRMHLRQYELL-OH (Ac-FN[Pra′]CRD[Azk]IQRMHLRQYELL-OH; triazole 3-7) [compound 12] |  | Shift (human β2AR [1]; Table 8, ratio IC50 β2AR alone / IC50 β2AR + modulator): 37
2 | RDIIQRMHLRQYELL [compound 16, Ac-RDIIQRMHLRQYELL-OH] |  | Shift (human β2AR [1]; [3]): 1; Shift (human β2AR [1]; [4]): 1
3 | Ac-FN[S5CRDS5]IQRMHLRQYELL-OH [compound 26] |  | Shift (human β2AR [1]; [5]): 2; Shift (human β2AR [1]; [6]): 2
4 | Ac-KKKFN[PraCRDAzk]IQRMHLRQ1-NaIELL-OH (Ac-KKKFN[Pra′]CRD[Azk]IQRMHLRQ[1Nal]ELL-OH; triazole 6-10) [compound 57] |  | Shift (human β2AR [1]; Table 18c overview, averaged values of IC50 shift): 49
5 | Ac-RDIIQR[AzkHLRPra]YELL-OH (Ac-RDIIQR[Azk]HLR[Pra′]YELL-OH; triazole 7-11) [compound 19] |  | Shift (human β2AR [1]; [4]): 5
6 | QRMHLRQYELL [compound 21, Ac-QRMHLRQYELL-OH] |  | Shift (human β2AR [1]; [3]): 1; Shift (human β2AR [1]; [4]): 1
7 | Ac-FN[ECRDK]IQRMHLRQYELL-OH [compound 24] |  | Shift (human β2AR [1]; [5]): 7; Shift (human β2AR [1]; [6]): 7
8 | Ac-FN[Pra′]CRD[Azk]IQRMHLRQ[1Nal]ELL-OH (triazole 3-7) [compound 43] | 54 | 
9 | Ac-FN[Pra′]CRD[Azk]IQRMHLRQY[Aad]LL-OH (triazole 3-7) [compound 37] | 35 | 
10 | Ac-FN[Pra′]CRD[Azk]IQRMHLRQYELI-OH (triazole 3-7) [compound 34] | 29 | 
11 | Ac-KFN[Pra′]CRD[Azk]IQRMHLRQYEIL-OH (triazole 4-8) [compound 48] | 8 | 
12 | Ac-KKKFN[Pra′]CRD[Azk]IQRMHLRQYEIL-OH (triazole 6-10) [compound 49] | 11 | 
13 | Ac-FN[Pra′]CRN[Azk]IQRMHLRQYELL-OH (triazole 3-7) [compound 38] | 7 | 
14 | Ac-FN[Pra′]CRD[Azk]IQRMHLRQYELL-NH2 (triazole 3-7) [compound 36] | 1 | 
15 | Ac-KKKFN[Pra′]CRD[Azk]IQRMHLRQWELL-OH (triazole 6-10) [compound 56] | 53 | 
16 | Ac-KKKFN[Pra′]CRD[Azk]IQRMHLRQ[2Nal]ELL-OH (triazole 6-10) [compound 58] | 39 | 
17 | Ac-FN[Pra′]CRD[Azk]IQRMHLRQYEIL-OH (triazole 3-7) [compound 32] | 2 | 
18 | Ac-FN[Pra′]CRD[Azk]IQRMHLRQYDLL-OH (triazole 3-7) [compound 39] | 52 | 
19 | Ac-FN[Azk]CRD[Pra′]IQRMHLRQYELL-OH (triazole 3-7) [compound 35] | 5 | 

Row | Molecule | Shift (averaged) (human β2AR [2]) | other results
20 | Ac-KFN[Pra′]CRD[Azk]IQRMHLRQYDLL-OH (triazole 4-8) [compound 54] | 91 | 
21 | Ac-NARRIFNDARDIIQRMHLRQYELL-OH [compound 81] | 8 | 
22 | Ac-FNDARDIIQRMHLRQYELL-OH [compound 75] | 5 | 
23 | Ac-FN[Pra′]CRD[Azk]IQRMHLRQYQLL-OH [compound 27] | 4 | 
24 | Ac-FN[Pra′]CRD[Azk]IQRMHLRQWELL-OH [compound 29] | 4 | 
25 | Ac-KKKFN[Pra]CRD[Lys(N3)]IQRMHLRQ[1Nal]ELL-OH (triazole 6-10) [compound 57] | 49 | 
26 | Ac-RDIIQR[Lys(N3)]HLR[Pra′]YE[Cha]L-OH (triazole 7-11) [compound 64] | 81 | 
27 | Ac-FNDCRDIIQRMHLRQYEYL-OH [compound 70] | 2 | 
28 | Ac-FN[Pra′]CRD[Azk]IQRMHLRQWELL-OH (triazole 3-7) [compound 30] | 9 | 
29 | Ac-KKKFN[Pra′]CRD[Azk]IQRMHLRQY[Aad]LL-OH (triazole 6-10) [compound 53] | 38 | 
30 | Ac-KFN[Pra′]CRD[Azk]IQRMHLRQY[Aad]LL-OH (triazole 4-8) [compound 52] | 53 | 
31 | Ac-KKKFN[Pra′]CRD[Azk]IQRMHLRQYELI-OH (triazole 6-10) [compound 47] | 64 | 
32 | Ac-NARRIFNDARDIIQRMHLRQYEWL-OH [compound 83] | 9 | 
33 | Ac-FNDCRDIIQRMHLRQYEHL-OH [compound 71] | 1 | 
34 | Ac-KFN[Pra′]CRD[Azk]IQRMHLRQYELI-OH (triazole 4-8) [compound 46] | 51 | 
35 | Ac-KKKFN[Pra′]CRD[Azk]IQRMHLRQYDLL-OH (triazole 6-10) [compound 55] | 72 | 
36 | Ac-KKKRDIIQR[Lys(N3)]HLR[Pra′]YE[Cha]L-OH (triazole 10-14) [compound 65] | 63 | 
37 | Ac-FN[Pra′]CRD[Azk]IQRMHLRQYQLL-OH (triazole 3-7) [compound 28] | 12 | 
